In patent US20220153822A1 (ALYTAS THERAPEUTICS, published 2022):
Positions count from the first letter of the chain named.

T1: Perilipin epitope 1 peptide NKGLTLLDGDLPEQE (SEQ ID NO. 330) (human, Biotin-PEG Spacer and GGSGGS Linker (SEQ ID NO. 438) at the N-terminus, or Biotin-PEG Spacer and AAAAA Linker (SEQ ID NO. 439) at the C-terminus)
T1 construct: Two biotinylated variants were used for selection and ELISA; On the peptide array it stood without biotin; also called target peptide
T1 peptide: NKGLTLLDGDLPEQE

T2: Perilipin epitope 2 peptide QYPPEKIASELKDTI (SEQ ID NO. 331) (human, Biotin-PEG Spacer and GGSGGS Linker (SEQ ID NO. 438) at the N-terminus, or Biotin-PEG Spacer and AAAAA Linker (SEQ ID NO. 439) at the C-terminus)
T2 construct: Two biotinylated variants were used for selection and ELISA; On the peptide array it stood without biotin; also called target peptide
T2 peptide: QYPPEKIASELKDTI

T3: Perilipin epitope 5 peptide AKPSLLSRVGALTNT (SEQ ID NO. 332) (human, Biotin-PEG Spacer and GGSGGS Linker (SEQ ID NO. 438) at the N-terminus, or Biotin-PEG Spacer and AAAAA Linker (SEQ ID NO. 439) at the C-terminus)
T3 construct: Two biotinylated variants were used for selection and ELISA; On the peptide array it stood without biotin; also called target peptide
T3 peptide: AKPSLLSRVGALTNT

B1: Antibody No. 5 (antibody, V domains shown)
VH: QVQLVESGGGVVQPGRSLRLSCAASGFTFSSYAMHWVRQAPGKGLEWVAVISYDGSNKYYADSVKGRFTISRDNSKNTLYLQMNSLRAEDTAVYYCARIAAAGPFDYWGQGTLVTVSS
VL: SYVLTQPPSVSEAPRQRVTISCSGSSSNIGNNAVNWYQQLPGKAPKLLIYYDDLLPSGVSDRFSGSKSGTSASLAISGLQSEDEADYYCAAWDDSLNGVVFGGGTKLTVL
notes: human IgG1, lambda or kappa light chain; also called 438-G12; antibody #5
B2: Antibody No. 6 (antibody, V domains shown)
VH: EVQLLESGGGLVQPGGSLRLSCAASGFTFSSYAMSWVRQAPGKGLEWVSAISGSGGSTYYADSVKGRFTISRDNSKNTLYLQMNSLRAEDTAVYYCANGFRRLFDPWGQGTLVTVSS
VL: QSALTQPASVSGSPGQSITISCTGTSSDVGGYNYVSWYQQHPGKAPKLMIYDVSNRPSGVSNRFSGSKSGNTASLTISGLQAEDEADYYCSSYTSSSTHVVFGGGTKLTVL
notes: human IgG1, lambda or kappa light chain; also called 448-B03
B3: Antibody No. 7 (antibody, V domains shown)
VH: QVQLVQSGGSVVQPGRSLRLSCAASGFTFSSYAMHWVRQAPGKGLEWVAVISYDGSNKYYADSVKGRFTISRDNSKNTLYLQMNSLRAEDTAVYYCARFASIAARPFDYWGQGTLVTVSS
VL: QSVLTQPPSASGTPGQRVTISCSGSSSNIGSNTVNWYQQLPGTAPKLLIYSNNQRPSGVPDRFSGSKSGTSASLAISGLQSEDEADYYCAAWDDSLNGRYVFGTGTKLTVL
notes: human IgG1, lambda or kappa light chain; also called 448-D02
B4: Antibody No. 8 (antibody, V domains shown)
VH: QVQLVESGAEVKKPGASVKVSCKASGYTFTSYGISWVRQAPGQGLEWMGWISAYNGNTNYAQKLQGRVTMTTDTSTSTAYMELRSLRSDDTAVYYCARGGSSSNYWGQGTLVTVSS
VL: QSALTQPASVSGSPGQSITISCTGTSSDVGGYNYVSWYQQHPGKAPKLMIYEVSNRPSGVSNRFSGSKSGNTASLTISGLQAEDEADYYCSSYTSSSTLVFGGGTKLTVL
notes: human IgG1, lambda or kappa light chain; also called 448-E03
B5: Antibody No. 9 (antibody, V domains shown)
VH: QVQLVQSGGGVVQPGRSLRLSCAASGFTFSSYGMHWVRQAPGKGLEWVAVISYDGSNKYYADSVKGRFTISRDNSKNTLYLQMNSLRAEDTAVYYCANNPSSGADYWGQGTLVTVSS
VL: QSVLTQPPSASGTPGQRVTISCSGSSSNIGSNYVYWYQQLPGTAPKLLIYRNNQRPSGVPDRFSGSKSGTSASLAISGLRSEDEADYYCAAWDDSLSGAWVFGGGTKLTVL
notes: human IgG1, lambda or kappa light chain; also called 448-G01
B6: Antibody No. 10 (antibody, V domains shown)
VH: EVQLVQSGAEVKKPGSSVKISCKASGGTFSSYAISWVRQAPGQGLEWMGGIIPIFGTANYAQKFQGRVTITADESTSTAYMELSSLRSEDTAVYYCARSHSSGWEWWGQGTLVTVSS
VL: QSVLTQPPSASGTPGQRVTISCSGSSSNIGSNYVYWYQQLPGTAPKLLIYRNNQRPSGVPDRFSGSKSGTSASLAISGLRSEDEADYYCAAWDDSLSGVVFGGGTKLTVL
notes: human IgG1, lambda or kappa light chain; also called 439-E10
B7: Antibody No. 11 (antibody, V domains shown)
VH: QVQLVQSGAEVKKPGASVKVSCKASGYTFTSYGISWVRQAPGQGLEWMGWISAYNGNTNYAQKLQGRVTMTTDTSTSTAYMELRSLRSDDTAVYYCASLYCSGGSCYSALDPWGQGTLVTVSS
VL: QSVLTQPPSVSGAPGQRVTISCTGSSSNIGAGYDVHWYQQLPGTAPKLLIYGNSNRPSGVPDRFSGSKSGTSASLAITGLQAEDEADYYCQSYDSSLRYVVFGGGTKVTVL
notes: human IgG1, lambda or kappa light chain; also called 447-D12
B8: Antibody No. 16 (antibody, V domains shown)
VH: QVQLVEFGGGVVQPGRSLRLSCAASGFTFSSYGMHWVRQAPGKGLEWVAAISYDGSNKYYADSVKGRFTISRDNSKNTLYLQMNSLRAEDTAVYYCAKDMGLSWYGEFDYWGQGTLVTVSS
VL: QSVLTQPPSVSEAPRQRVTISCSGSSSNIGNNAVSWYQQLPGKAPKLLIYYDDLLPSGVSDRFSGSKSGTSASLAISGLQSEDEADYYCAAWDDSLNWVFGGGTKLTVL
notes: human IgG1, lambda or kappa light chain; also called 447-B05
B9: Antibody No. 17 (antibody, V domains shown)
VH: EVQLVQSGGGVVQPGRSLRLSCAASGFTFSSYGMHWVRQAPGKGLEWVAVISYDGSNKYYADSVKGRFTISRDNSKNTLYLQMNSLRAEDTAVYYCAKDIFMDVWGQGTMVTVSS
VL: B2 VL with H99L
notes: human IgG1, lambda or kappa light chain; also called 447-C04
B10: Antibody No. 18 (antibody, V domains shown)
VH: EVQLLESGGGLVQPGRSLRLACVASGFTFDDYGMHWVRQAPGKGLEWVAVISYDGSNKYYADSVKGRFTISRDNSKNTLYLQMNSLRAEDTAVYYCAKAYGEGGFDPWGQGTLVTVSS
VL: B2 VL with D52E, H99T, V100W, L108V
notes: human IgG1, lambda or kappa light chain; also called 447-D03
B11: Antibody No. 19 (antibody, V domains shown)
VH: QVQLVQSGGGVVQPRRSLRLSCAASGFTFSSYAMHWVRQAPGKGLEWVAVISYDGSNKYYADPVKGRFTISRDNSKNTLYLQMNSLRAEDTAVYYCARGGDGYNWDAFDIWGQGTMVTVSS
VL: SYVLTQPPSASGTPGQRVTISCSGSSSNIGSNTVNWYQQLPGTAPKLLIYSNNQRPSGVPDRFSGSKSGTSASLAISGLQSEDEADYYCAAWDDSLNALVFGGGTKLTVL
notes: human IgG1, lambda or kappa light chain; also called 447-D04
B12: Antibody No. 21 (antibody, V domains shown)
VH: QVQLVESGGGLVQPGRSLRLSCAASGFTFDDYAMHWVRQAPGKGLEWVSGISWNSGSIGYADSVKGRFTISRDNAKNSLYLQMNSLRAEDTALYYCAKEGEYSYGGGEFDPWGQGTLVTVSS
VL: B4 VL with E52D, L99W
notes: human IgG1, lambda or kappa light chain; also called 447-G03
B13: Antibody No. 22 (antibody, V domains shown)
VH: QVQLVESGGGVVQPGRSLRLSCAASGFTFSSYGMHWVRQAPGKGLEWVAVISYDGSNKYYADSVKGRFTISRDNSKNTLYLQMNSLRAEDTAVYYCANTPGGLTPFDYWGQGTLVTVSS
VL: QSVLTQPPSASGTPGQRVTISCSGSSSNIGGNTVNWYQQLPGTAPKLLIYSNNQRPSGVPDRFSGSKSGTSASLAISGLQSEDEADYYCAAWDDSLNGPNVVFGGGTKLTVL
notes: human IgG1, lambda or kappa light chain; also called 447-H03

Molecular target: T1, Perilipin epitope 1 peptide …
Assay: phage display selection and ELISA on biotinylated target peptide

Row | Binder | binding result
1 | B1 | binds
2 | B2 | binds
3 | B3 | binds
4 | B4 | binds
5 | B5 | binds

Molecular target: T2, Perilipin epitope 2 peptide …
Assay: as above

Row | Binder | binding result
6 | B6 | binds
7 | B7 | binds

Molecular target: T3, Perilipin epitope 5 peptide …
Assay: as above

Row | Binder | binding result
8 | B8 | binds
9 | B9 | binds
10 | B10 | binds
11 | B11 | binds
12 | B12 | binds
13 | B13 | binds
